Reference: PMC9922296, “Mechanistic insights into RNA surveillance by the canonical poly(A) polymerase Pla1 of the MTREC complex” (Nature Communications, 2023)
“And” between values parts separate entries of the source, which are not always exact repeats. Equal entries are not always repeated. Each block holds one binder with its values, some of them ahead of it. No end group written: not given here.

Key:
[1] = biological target: T1, Pla1RRM (C-terminal RRM domain of Pla1, residues 352-566) (S. pombe, UniProt Q10295 352-566); assay: ITC; control of the competition: Iss1 30-76 titrated into Pla1RRM pre-incubated with a 1.1-fold molar excess of Red1 288-345 W298A/F305A; 25 °C; 20 mM HEPES pH 7.5, 150 mM NaCl, 2 mM BME; conditions: both partners purified
T1 construct: Pla1, canonical poly(A) polymerase, S. pombe, C-terminal RRM domain, residues 352-566; also called Pla1 RRM domain; Pla1 CTD; source: E. coli BL21 (DE3) Rosetta2, purified (His-Trap, TEV cleavage, Resource Q, Superdex 200); not shown: His6, N-terminal, cleaved
T1 sequence (looked up): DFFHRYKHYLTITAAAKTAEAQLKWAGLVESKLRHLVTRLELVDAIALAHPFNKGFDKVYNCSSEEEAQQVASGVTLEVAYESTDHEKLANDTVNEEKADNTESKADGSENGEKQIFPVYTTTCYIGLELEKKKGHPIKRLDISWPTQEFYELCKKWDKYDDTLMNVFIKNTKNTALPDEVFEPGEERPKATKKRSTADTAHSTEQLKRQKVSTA

[2] = biological target: T1, Pla1RRM (C-terminal RRM domain of Pla1, …); assay: ITC; Red1 or Iss1 construct in the syringe (400-500 µM) titrated into Pla1RRM (wild type or mutant) in the cell (40-50 µM); 25 °C; 20 mM HEPES pH 7.5, 150 mM NaCl, 2 mM BME; one-binding site model; each independent measurement listed; conditions: both partners purified
[3] = biological target: T2, Pla1_(EEQE): Pla1RRM with K559/R560/Q561/K562 changed to EEQE (S. pombe, UniProt Q10295 352-566, K559/R560/Q561/K562 to EEQE); assay: ITC
T2 sequence: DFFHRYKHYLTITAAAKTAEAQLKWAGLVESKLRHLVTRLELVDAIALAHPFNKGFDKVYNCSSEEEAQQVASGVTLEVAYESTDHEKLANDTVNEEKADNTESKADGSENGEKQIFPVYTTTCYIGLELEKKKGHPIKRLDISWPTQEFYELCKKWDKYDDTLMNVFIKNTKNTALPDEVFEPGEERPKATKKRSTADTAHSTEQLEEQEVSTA

[4] = biological target: T3, Pla1EEE: Pla1RRM with K544/K545/R546 changed to EEE (S. pombe, UniProt Q10295 352-566, K544/K545/R546 to EEE); assay: ITC
T3 sequence: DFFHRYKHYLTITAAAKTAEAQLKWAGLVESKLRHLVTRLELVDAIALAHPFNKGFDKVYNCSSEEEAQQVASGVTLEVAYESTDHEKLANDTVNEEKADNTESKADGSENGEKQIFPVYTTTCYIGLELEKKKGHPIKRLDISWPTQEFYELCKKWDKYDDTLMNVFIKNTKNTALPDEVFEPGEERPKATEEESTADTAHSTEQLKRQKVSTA

[5] = biological target: T4, Pla1RRM with the charge reversal mutation K368E (S. pombe, UniProt Q10295 352-566, K368E); assay: ITC
T4 sequence: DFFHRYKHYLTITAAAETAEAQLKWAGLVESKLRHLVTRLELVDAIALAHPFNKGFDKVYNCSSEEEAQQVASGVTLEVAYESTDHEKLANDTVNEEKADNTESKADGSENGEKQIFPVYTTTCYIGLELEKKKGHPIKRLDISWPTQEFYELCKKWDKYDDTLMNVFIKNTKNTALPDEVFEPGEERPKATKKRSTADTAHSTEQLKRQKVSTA

[6] = biological target: T5, C-terminal RRM domain of Pla1 (Pla1RRM, residues 352-566), purified (S. pombe, UniProt Q10295 352-566); assay: ITC; MicroCal PEAQ-ITC, 25 °C, 20 mM HEPES pH 7.5, 150 mM NaCl, 2 mM BME; 40-50 µM protein in the cell, 400-500 µM ligand in the syringe; one-binding site model; conditions: both partners purified
T5 construct: canonical poly(A) polymerase Pla1, S. pombe, C-terminal RRM domain, residues 352-566; also called Pla1 CTD; source: E. coli BL21 (DE3) Rosetta2, purified (His-Trap, TEV cleavage, Resource Q, Superdex 200); not shown: His6, N-terminal, cleaved
T5 sequence (looked up): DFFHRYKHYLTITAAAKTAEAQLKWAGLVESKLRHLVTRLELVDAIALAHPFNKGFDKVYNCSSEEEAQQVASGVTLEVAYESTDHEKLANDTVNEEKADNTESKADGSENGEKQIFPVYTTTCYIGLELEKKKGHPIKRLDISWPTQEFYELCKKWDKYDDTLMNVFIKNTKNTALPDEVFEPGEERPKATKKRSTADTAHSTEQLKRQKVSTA

[7] = biological target: T6, Pla1RRM with the charge reversal mutation K368E (S. pombe, UniProt Q10295 352-566, K368E); assay: as above; conditions: both partners purified
T6 construct: canonical poly(A) polymerase Pla1, S. pombe, RRM domain, residues 352-566 with K368E; source: E. coli BL21 (DE3) Rosetta2, purified; not shown: His6, N-terminal, cleaved
T6 sequence (looked up): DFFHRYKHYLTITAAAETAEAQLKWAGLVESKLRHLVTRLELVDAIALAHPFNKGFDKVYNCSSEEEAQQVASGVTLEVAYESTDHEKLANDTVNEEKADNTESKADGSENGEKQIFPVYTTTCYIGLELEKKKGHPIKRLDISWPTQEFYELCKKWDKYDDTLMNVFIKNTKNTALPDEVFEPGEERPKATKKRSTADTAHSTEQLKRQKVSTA

[8] = biological target: T7, Pla1EEE: Pla1RRM with K544/K545/R546 changed to EEE (S. pombe, UniProt Q10295 352-566, K544/K545/R546 to EEE); assay: as above; conditions: both partners purified
T7 construct: canonical poly(A) polymerase Pla1, S. pombe, RRM domain, residues 352-566 with K544/K545/R546 to EEE; source: E. coli BL21 (DE3) Rosetta2, purified; not shown: His6, N-terminal, cleaved
T7 sequence (looked up): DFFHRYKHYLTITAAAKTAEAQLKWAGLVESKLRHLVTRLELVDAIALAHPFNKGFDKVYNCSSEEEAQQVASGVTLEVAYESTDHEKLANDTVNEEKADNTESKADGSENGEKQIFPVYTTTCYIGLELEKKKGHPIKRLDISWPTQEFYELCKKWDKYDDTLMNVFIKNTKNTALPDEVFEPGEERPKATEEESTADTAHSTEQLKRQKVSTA

[9] = biological target: T8, Pla1_(EEQE): Pla1RRM with K559/R560/Q561/K562 changed to EEQE (S. pombe, UniProt Q10295 352-566, K559/R560/Q561/K562 to EEQE); assay: as above; conditions: both partners purified
T8 construct: canonical poly(A) polymerase Pla1, S. pombe, RRM domain, residues 352-566 with K559/R560/Q561/K562 to EEQE; source: E. coli BL21 (DE3) Rosetta2, purified; not shown: His6, N-terminal, cleaved
T8 sequence (looked up): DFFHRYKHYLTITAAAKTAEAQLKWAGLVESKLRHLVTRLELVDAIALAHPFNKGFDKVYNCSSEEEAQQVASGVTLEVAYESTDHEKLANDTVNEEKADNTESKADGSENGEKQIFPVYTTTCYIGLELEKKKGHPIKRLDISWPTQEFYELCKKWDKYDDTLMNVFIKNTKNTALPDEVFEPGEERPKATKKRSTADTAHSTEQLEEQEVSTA

[10] = biological target: T5, C-terminal RRM domain of Pla1 (Pla1RRM, …); assay: ITC; competition: Red1_(288-345) titrated into Pla1RRM pre-incubated with a 1.1-fold molar excess of Iss1_(30-76); 25 °C, 20 mM HEPES pH 7.5, 150 mM NaCl, 2 mM BME; conditions: both partners purified
[11] = biological target: T1, Pla1RRM (C-terminal RRM domain of Pla1, …); assay: ITC; competition: Red1 288-345 titrated into Pla1RRM pre-incubated with a 1.1-fold molar excess of Iss1 30-76; 25 °C; 20 mM HEPES pH 7.5, 150 mM NaCl, 2 mM BME; conditions: both partners purified
[12] = biological target: T9, Pla1RRM K368E (S. pombe, UniProt Q10295 352-566, K368E); assay: ITC; Red1 or Iss1 construct in the syringe (400-500 µM) titrated into Pla1RRM (wild type or mutant) in the cell (40-50 µM); 25 °C; 20 mM HEPES pH 7.5, 150 mM NaCl, 2 mM BME; one-binding site model; each independent measurement listed; conditions: both partners purified
T9 construct: Pla1, S. pombe, C-terminal RRM domain, residues 352-566; source: E. coli BL21 (DE3) Rosetta2, purified (His-Trap, TEV cleavage, Resource Q, Superdex 200); not shown: His6, N-terminal, cleaved
T9 sequence (looked up): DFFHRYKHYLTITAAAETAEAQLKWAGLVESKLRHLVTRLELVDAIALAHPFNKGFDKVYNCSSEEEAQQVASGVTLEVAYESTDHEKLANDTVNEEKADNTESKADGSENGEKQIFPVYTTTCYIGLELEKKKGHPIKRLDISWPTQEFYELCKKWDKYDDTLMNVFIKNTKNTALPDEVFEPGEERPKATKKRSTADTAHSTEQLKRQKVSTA

[13] = biological target: T10, Pla1RRM EEQE (S. pombe, UniProt Q10295 352-566, K559/R560/Q561/K562 to EEQE); assay: as above; conditions: both partners purified
T10 construct: Pla1, S. pombe, C-terminal RRM domain, residues 352-566; also called Pla1_(EEQE); K559/R560/Q561/K562 to EEQE; source: E. coli BL21 (DE3) Rosetta2, purified (His-Trap, TEV cleavage, Resource Q, Superdex 200); not shown: His6, N-terminal, cleaved
T10 sequence (looked up): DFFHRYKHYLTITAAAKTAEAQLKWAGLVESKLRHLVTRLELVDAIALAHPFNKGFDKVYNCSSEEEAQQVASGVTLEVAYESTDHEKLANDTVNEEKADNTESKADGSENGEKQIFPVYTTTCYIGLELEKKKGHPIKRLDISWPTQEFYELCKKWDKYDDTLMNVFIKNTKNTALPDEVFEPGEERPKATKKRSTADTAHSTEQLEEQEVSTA

[14] = biological target: T11, Pla1RRM EEE (S. pombe, UniProt Q10295 352-566, K544/K545/R546 to EEE); assay: as above; conditions: both partners purified
T11 construct: Pla1, S. pombe, C-terminal RRM domain, residues 352-566; also called Pla1EEE; K544/K545/R546 to EEE; source: E. coli BL21 (DE3) Rosetta2, purified (His-Trap, TEV cleavage, Resource Q, Superdex 200); not shown: His6, N-terminal, cleaved
T11 sequence (looked up): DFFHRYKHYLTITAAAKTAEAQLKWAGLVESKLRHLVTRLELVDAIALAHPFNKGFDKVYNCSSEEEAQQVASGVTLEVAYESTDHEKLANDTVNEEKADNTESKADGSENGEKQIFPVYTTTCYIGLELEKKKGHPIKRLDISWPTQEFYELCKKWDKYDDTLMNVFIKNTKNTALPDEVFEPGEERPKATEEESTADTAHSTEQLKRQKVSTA

[15] = biological target: T1, Pla1RRM (C-terminal RRM domain of Pla1, …); assay: NMR titration; 1.5-fold molar excess of unlabelled Pla1RRM added to 0.3 mM 15N-labelled GB1-tagged Red1 constructs; 1H,15N-HSQC; 293 K; sodium phosphate pH 6.5, 100 mM NaCl; conditions: both partners purified

B1: Iss1 30-76 (domain or fragment, S. pombe)
chain: VSNAKSPEQASEESDDSDIEFIIETKPGERAEPLGGSIATLGSTRPS
notes: Iss1 (fission yeast orthologue of scFip1), S. pombe, residues 30-76; source: E. coli BL21 (DE3) Rosetta2, purified (His-Trap, TEV cleavage, second IMAC flow-through, Superdex 75); not shown: His-Thioredoxin, N-terminal, cleaved
- stoichiometry N [1]: 0.97 and 1
- Kd [2]: 2.11 µM and 2.94 µM
- stoichiometry N [2]: 1

B3: Red1 288-345 (domain or fragment, S. pombe)
chain: ISLPLLKQDDWLSSSKPFGSSTPNVVIEFDSDDDGDDFSNSKIEQSNLEKPPSNSENG
notes: source: E. coli BL21 (DE3), purified (His-Trap, TEV cleavage, second IMAC, Superdex 75); not shown: GB1, N-terminal, cleaved; His6, C-terminal, kept
- stoichiometry N [11]: 1.11 and 1.82
- Kd [2]: 1.56 µM and 1.15 µM and 1.37 µM
- stoichiometry N [2]: 1.05 and 0.952 and 1.19
- Kd [12]: 15.3 µM and 20.3 µM
- stoichiometry N [12]: 0.8 and 1
- Kd [13]: 3.28 µM and 2.27 µM
- stoichiometry N [13]: 1.03 and 0.97
- Kd [14]: 9.43 µM and 9.98 µM
- stoichiometry N [14]: 0.86 and 0.94

The next lines start with the values.

- Kd [3]: 2.8 µM
- Kd [4]: 9.8 µM
- Kd [5]: 17.8 µM
- Kd [6]: 1.4 µM
- fold loss in affinity against wild-type Pla1RRM [7]: ~13 fold
- fold loss in affinity against wild-type Pla1RRM [8]: ~7 fold
- fold loss in affinity against wild-type Pla1RRM [9]: ~2 fold
- KD into the pre-formed Pla1RRM-Iss1_(30-76) complex [10]: 11 µM
B2: Red1 residues 288-345 (Pla1 interaction region), purified (domain or fragment, S. pombe, UniProt Q9UTR8 288-345, looked up)
chain: ISLPLLKQDDWLSSSKPFGSSTPNVVIEFDSDDDGDDFSNSKIEQSNLEKPPSNSENG
notes: as for B3

- binding result [15]: binds
B4: GB1-tagged Red1 288-322 (domain or fragment, S. pombe)
chain: ISLPLLKQDDWLSSSKPFGSSTPNVVIEFDSDDDG
modifications: not fully specified (N-terminus); also: 15N-labelled
notes: source: E. coli BL21 (DE3), 15N-labelled in M9 minimal medium, purified; not shown: GB1, N-terminal, kept; His6, C-terminal, kept
